The target in this test is stabilized neuraminidase protein (sNAp) of A/Vietnam/1203/2004 (VN04, H5N1) (Influenza A virus A/Vietnam/1203/2004 …, UniProt Q6DPL2, stabilised). In words: ELISA. The settings on record: both partners purified. In general terms: ELISA stands for enzyme-linked immunosorbent assay.

Residue numbers refer to the chain shown, from its start.

B1: NCS.1.3 (human IgG1) (antibody, V domains shown)
VH: QVQLQESGPRLVKPSETLSLTCSVSGESISSGGYYWTWIRQHPGKGLEWIGNIFDTGSTDYSPSLKTRLTISIDTSKNQFYLRLTSATAADTAVYYCARVGFSLETDRPYYLGLDVWGQGTTVTVSS
VL: DIVMTQSPLTLPVTPGEPASISCRSSQSLLHSNGYTYLDWYLQKPGQSPQLLIYFASNRASGVPDRFSGSGSGTYFTLKISRVEAEDVGVYYCMQAVQSPWTFGQGTKVEIK
On to B1, for which the binding result is “binds”.

B2: NCS.1 (human IgG1) (antibody, V domains shown)
VH: B1 VH with Q5P, D60H, T85N, F102Y, L112F
VL: B1 VL with T10S, F55L, S99T
Consider B2, for which the binding result is “binds”.

B3: NCS.1.1 (human IgG1) (antibody, V domains shown)
VH: B1 VH with T85N
VL: B1 VL with T10S, Y54S, A56T, S99T
As for B3, the binding result is given as “binds”.

The values are drawn from paper PMC12316982 (Nature Communications, 2025).
